For this data set, the system named is Escherichia coli TOP10. Description: shrunken log2 fold change of peptide-encoding DNA abundance (4.5 h post-induction vs induction); higher = less antimicrobial activity (less host growth inhibition). Particulars: time post-induction: 4.5 h; library: site-saturation at positions 5, 18, 19, 20.
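Note: peptides expressed intracellularly from a pBAD plasmid library in pooled LB shake-flask culture, induced with 0.3% L-arabinose, DNA abundance read by NGS, three biological replicates, DESeq2 with apeglm shrinkage.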

With RRIRYRPPRLPRPRPRPPFEPRP, the “shrunken log2 fold change” value was -0.0385.

For RRIRWRPPRLPRPRPRPYSSPRP, the “shrunken log2 fold change” value was -1.07.

As to RRIRIRPPRLPRPRPRPLRWPRP, the “shrunken log2 fold change” value came to 1.02.

RRIRIRPPRLPRPRPRPRGQPRP: the “shrunken log2 fold change” value turned out to be 0.413.

For RRIRYRPPRLPRPRPRPCCWPRP, the “shrunken log2 fold change” value came to 0.0911.

With RRIRWRPPRLPRPRPRPMTRPRP, the “shrunken log2 fold change” value amounted to 0.0972.

As for RRIRSRPPRLPRPRPRPLTPPRP, the “shrunken log2 fold change” value was 0.166.

For RRIRIRPPRLPRPRPRPVFWPRP, the “shrunken log2 fold change” value came out at 0.201.

On to RRIRFRPPRLPRPRPRPKIRPRP, for which the “shrunken log2 fold change” value is -0.226.

For RRIRSRPPRLPRPRPRPCRMPRP, the “shrunken log2 fold change” value is -0.102.

On to RRIRPRPPRLPRPRPRPKQLPRP, for which the “shrunken log2 fold change” value is 0.0245.

For RRIRKRPPRLPRPRPRPDIIPRP, the “shrunken log2 fold change” value amounted to 0.194.

As for RRIRDRPPRLPRPRPRPIQHPRP, the “shrunken log2 fold change” value is -0.444.

Turning to RRIRWRPPRLPRPRPRPVARPRP, the “shrunken log2 fold change” value worked out at 0.359.

Turning to RRIRDRPPRLPRPRPRPDCRPRP, the “shrunken log2 fold change” value is 0.249.

As to RRIRKRPPRLPRPRPRPWFEPRP, the “shrunken log2 fold change” value was 0.0346.

Consider RRIRFRPPRLPRPRPRPSEYPRP, for which the “shrunken log2 fold change” value is -0.288.

Regarding RRIRGRPPRLPRPRPRPYKPPRP, the “shrunken log2 fold change” value is -0.571.

In the case of RRIRGRPPRLPRPRPRPDINPRP, the “shrunken log2 fold change” value turned out to be 1.68.

Turning to RRIRTRPPRLPRPRPRPIGAPRP, the “shrunken log2 fold change” value turned out to be 0.089.

Turning to RRIRVRPPRLPRPRPRPPCMPRP, the “shrunken log2 fold change” value was -0.0452.

Turning to RRIRNRPPRLPRPRPRPIKMPRP, the “shrunken log2 fold change” value is -0.404.

RRIRIRPPRLPRPRPRPTFFPRP: the “shrunken log2 fold change” value is -0.292.

Turning to RRIRERPPRLPRPRPRPLPVPRP, the “shrunken log2 fold change” value is -0.0551.

As for RRIRFRPPRLPRPRPRPQTYPRP, the “shrunken log2 fold change” value was -0.69.

As for RRIRLRPPRLPRPRPRPRRGPRP, the “shrunken log2 fold change” value turned out to be 0.543.

Consider RRIRCRPPRLPRPRPRPPKRPRP, for which the “shrunken log2 fold change” value was determined as 0.797.

On to RRIRVRPPRLPRPRPRPYDEPRP, for which the “shrunken log2 fold change” value is -0.0163.

Turning to RRIRTRPPRLPRPRPRPLPAPRP, the “shrunken log2 fold change” value came to 0.364.

Regarding RRIRMRPPRLPRPRPRPISFPRP, the “shrunken log2 fold change” value is -0.496.

As for RRIRNRPPRLPRPRPRPTAWPRP, the “shrunken log2 fold change” value was -0.0125.

As for RRIRSRPPRLPRPRPRPDFMPRP, the “shrunken log2 fold change” value is -0.159.

As for RRIRKRPPRLPRPRPRPFVMPRP, the “shrunken log2 fold change” value came out at 0.261.

For RRIRNRPPRLPRPRPRPGNWPRP, the “shrunken log2 fold change” value was 0.0557.

Regarding RRIRYRPPRLPRPRPRPCGPPRP, the “shrunken log2 fold change” value is -0.436.

With RRIRVRPPRLPRPRPRPIWNPRP, the “shrunken log2 fold change” value is -0.624.

As for RRIRYRPPRLPRPRPRPNLVPRP, the “shrunken log2 fold change” value is -0.0754.

Regarding RRIRCRPPRLPRPRPRPNGQPRP, the “shrunken log2 fold change” value is -0.0579.

For RRIRWRPPRLPRPRPRPVYHPRP, the “shrunken log2 fold change” value was found to be 0.161.

On to RRIRFRPPRLPRPRPRPNQWPRP, for which the “shrunken log2 fold change” value was -0.21.

With RRIRNRPPRLPRPRPRPQFMPRP, the “shrunken log2 fold change” value is -0.709.

As to RRIRSRPPRLPRPRPRPETCPRP, the “shrunken log2 fold change” value came to 0.152.

Regarding RRIRARPPRLPRPRPRPWRVPRP, the “shrunken log2 fold change” value is 0.12.

For RRIRRRPPRLPRPRPRPTAQPRP, the “shrunken log2 fold change” value was 0.244.

For the sequence RRIRHRPPRLPRPRPRPRGAPRP, the “shrunken log2 fold change” value turned out to be 0.152.

As for RRIRCRPPRLPRPRPRPTIPPRP, the “shrunken log2 fold change” value is -0.417.

Take RRIRDRPPRLPRPRPRPCAMPRP: the “shrunken log2 fold change” value turned out to be 0.259.

In the case of RRIRLRPPRLPRPRPRPQDKPRP, the “shrunken log2 fold change” value was -0.431.

As for RRIRIRPPRLPRPRPRPYCGPRP, the “shrunken log2 fold change” value was -0.179.

Take RRIRDRPPRLPRPRPRPCWHPRP: the “shrunken log2 fold change” value was determined as 2.46.

RRIRWRPPRLPRPRPRPERPPRP: the “shrunken log2 fold change” value came to 0.292.

Regarding RRIRKRPPRLPRPRPRPKGSPRP, the “shrunken log2 fold change” value was found to be 0.436.

With RRIRTRPPRLPRPRPRPDMWPRP, the “shrunken log2 fold change” value is -0.126.

On to RRIRIRPPRLPRPRPRPMENPRP, for which the “shrunken log2 fold change” value was 0.0119.

Take RRIRRRPPRLPRPRPRPKSTPRP: the “shrunken log2 fold change” value was determined as 0.18.

Turning to RRIRLRPPRLPRPRPRPHQVPRP, the “shrunken log2 fold change” value worked out at 0.00465.

In the case of RRIRDRPPRLPRPRPRPSPRPRP, the “shrunken log2 fold change” value is 0.00292.

Turning to RRIRKRPPRLPRPRPRPWPTPRP, the “shrunken log2 fold change” value came out at 0.103.

As to RRIRKRPPRLPRPRPRPSYNPRP, the “shrunken log2 fold change” value is -0.397.

With RRIRKRPPRLPRPRPRPAKIPRP, the “shrunken log2 fold change” value is -0.266.

As to RRIRCRPPRLPRPRPRPAYWPRP, the “shrunken log2 fold change” value came to 0.293.

With RRIRWRPPRLPRPRPRPTPEPRP, the “shrunken log2 fold change” value came to 0.711.

For the sequence RRIRGRPPRLPRPRPRPIYLPRP, the “shrunken log2 fold change” value came to 0.0531.

Regarding RRIRLRPPRLPRPRPRPLCTPRP, the “shrunken log2 fold change” value turned out to be 0.0663.

Consider RRIRMRPPRLPRPRPRPIHTPRP, for which the “shrunken log2 fold change” value was -0.0437.

In the case of RRIRDRPPRLPRPRPRPLGAPRP, the “shrunken log2 fold change” value was found to be 0.751.

Take RRIRERPPRLPRPRPRPITSPRP: the “shrunken log2 fold change” value amounted to 0.0102.

In the case of RRIRWRPPRLPRPRPRPGWMPRP, the “shrunken log2 fold change” value was 0.366.

Take RRIRWRPPRLPRPRPRPFQNPRP: the “shrunken log2 fold change” value was -0.235.

For the sequence RRIRQRPPRLPRPRPRPWFDPRP, the “shrunken log2 fold change” value was -0.253.

Consider RRIRKRPPRLPRPRPRPNPTPRP, for which the “shrunken log2 fold change” value came out at 0.249.

On to RRIRWRPPRLPRPRPRPPADPRP, for which the “shrunken log2 fold change” value is 0.846.

Take RRIRQRPPRLPRPRPRPAGFPRP: the “shrunken log2 fold change” value was found to be 0.266.

Turning to RRIRQRPPRLPRPRPRPINKPRP, the “shrunken log2 fold change” value is -0.318.

RRIRGRPPRLPRPRPRPPGRPRP: the “shrunken log2 fold change” value came out at 1.35.

Consider RRIRWRPPRLPRPRPRPKHFPRP, for which the “shrunken log2 fold change” value is -0.0487.

Consider RRIRKRPPRLPRPRPRPYKQPRP, for which the “shrunken log2 fold change” value was -0.0754.

For the sequence RRIRSRPPRLPRPRPRPAGAPRP, the “shrunken log2 fold change” value is 0.36.

Turning to RRIRGRPPRLPRPRPRPEWNPRP, the “shrunken log2 fold change” value was 1.71.

RRIRTRPPRLPRPRPRPQTMPRP: the “shrunken log2 fold change” value was -0.151.

Turning to RRIRQRPPRLPRPRPRPWCIPRP, the “shrunken log2 fold change” value is 0.0342.

For RRIRKRPPRLPRPRPRPEAKPRP, the “shrunken log2 fold change” value was 2.54.

As for RRIRKRPPRLPRPRPRPSAFPRP, the “shrunken log2 fold change” value is 0.619.

Take RRIRGRPPRLPRPRPRPVMMPRP: the “shrunken log2 fold change” value turned out to be 0.0154.

On to RRIRKRPPRLPRPRPRPWHLPRP, for which the “shrunken log2 fold change” value was -0.596.

For RRIRTRPPRLPRPRPRPWFMPRP, the “shrunken log2 fold change” value is -0.364.

In the case of RRIRSRPPRLPRPRPRPRASPRP, the “shrunken log2 fold change” value came to 0.346.

With RRIRHRPPRLPRPRPRPWLEPRP, the “shrunken log2 fold change” value was -0.0848.

Turning to RRIRNRPPRLPRPRPRPLCWPRP, the “shrunken log2 fold change” value was -0.198.

For the sequence RRIRERPPRLPRPRPRPEDWPRP, the “shrunken log2 fold change” value came to 0.351.

Regarding RRIRERPPRLPRPRPRPACWPRP, the “shrunken log2 fold change” value came to 0.715.

With RRIRQRPPRLPRPRPRPISCPRP, the “shrunken log2 fold change” value was -0.00146.

Turning to RRIRARPPRLPRPRPRPVYWPRP, the “shrunken log2 fold change” value was 0.141.

Regarding RRIRLRPPRLPRPRPRPGLMPRP, the “shrunken log2 fold change” value is -0.0199.

RRIRHRPPRLPRPRPRPPWNPRP: the “shrunken log2 fold change” value was -0.0664.

As to RRIRVRPPRLPRPRPRPLIHPRP, the “shrunken log2 fold change” value is -0.393.

RRIRIRPPRLPRPRPRPSRRPRP: the “shrunken log2 fold change” value stood at 0.35.

Take RRIRGRPPRLPRPRPRPNIFPRP: the “shrunken log2 fold change” value was 0.398.

As to RRIRKRPPRLPRPRPRPGTCPRP, the “shrunken log2 fold change” value was 0.258.

For RRIRPRPPRLPRPRPRPDMTPRP, the “shrunken log2 fold change” value was -0.293.

For the sequence RRIRLRPPRLPRPRPRPKFMPRP, the “shrunken log2 fold change” value was 0.149.

For the sequence RRIRARPPRLPRPRPRPQPWPRP, the “shrunken log2 fold change” value turned out to be 0.536.

Regarding RRIRARPPRLPRPRPRPRQQPRP, the “shrunken log2 fold change” value amounted to 0.277.

Consider RRIRDRPPRLPRPRPRPTTNPRP, for which the “shrunken log2 fold change” value was determined as 0.411.

For the sequence RRIRYRPPRLPRPRPRPILEPRP, the “shrunken log2 fold change” value is 0.0174.

As for RRIRMRPPRLPRPRPRPAIDPRP, the “shrunken log2 fold change” value was 0.718.

On to RRIRERPPRLPRPRPRPTPAPRP, for which the “shrunken log2 fold change” value came to 0.239.

As to RRIRQRPPRLPRPRPRPYQHPRP, the “shrunken log2 fold change” value is -0.515.

For RRIRNRPPRLPRPRPRPKMSPRP, the “shrunken log2 fold change” value was -0.064.

For the sequence RRIRDRPPRLPRPRPRPAKWPRP, the “shrunken log2 fold change” value was 0.486.

Consider RRIRHRPPRLPRPRPRPRKRPRP, for which the “shrunken log2 fold change” value worked out at 0.246.

As to RRIRSRPPRLPRPRPRPPRVPRP, the “shrunken log2 fold change” value came to 0.142.

Take RRIRMRPPRLPRPRPRPKGYPRP: the “shrunken log2 fold change” value is -0.0135.

With RRIRHRPPRLPRPRPRPWNNPRP, the “shrunken log2 fold change” value is -0.453.

For RRIRFRPPRLPRPRPRPGEAPRP, the “shrunken log2 fold change” value is 0.416.

RRIRTRPPRLPRPRPRPDQLPRP: the “shrunken log2 fold change” value was -0.0381.

For the sequence RRIRDRPPRLPRPRPRPKGLPRP, the “shrunken log2 fold change” value was 0.253.

Turning to RRIRKRPPRLPRPRPRPQQYPRP, the “shrunken log2 fold change” value worked out at 0.183.

Take RRIRFRPPRLPRPRPRPSCVPRP: the “shrunken log2 fold change” value is -0.443.

Take RRIRRRPPRLPRPRPRPEATPRP: the “shrunken log2 fold change” value is 2.74.

Take RRIRERPPRLPRPRPRPNYFPRP: the “shrunken log2 fold change” value is -0.57.

Take RRIRHRPPRLPRPRPRPGQRPRP: the “shrunken log2 fold change” value was 0.0218.

As to RRIRGRPPRLPRPRPRPLAGPRP, the “shrunken log2 fold change” value is 0.887.

RRIRYRPPRLPRPRPRPYSIPRP: the “shrunken log2 fold change” value was -0.264.

For the sequence RRIRRRPPRLPRPRPRPVYVPRP, the “shrunken log2 fold change” value was -0.198.
